In patent US20050032186, “Regulatory zinc finger proteins” (published 2005):

Assays:
F2634 = F2634 (artificial (human zinc finger domains)); experiment: cell_activity; endogenous VEGF-A conc., unit not given; parental vector 400; conditions: tags: HA, NLS, p65
F2638 = F2638 (artificial (human zinc finger domains)); experiment: as above; conditions: tags: HA, NLS, p65
F2607 = F2607 (artificial (human zinc finger domains)); experiment: cell_activity; endogenous VEGF-A conc., unit inferred; parental vector 400; conditions: tags: HA, NLS, p65
F2646 = F2646 (artificial (human zinc finger domains)); experiment: cell_activity; endogenous VEGF-A conc., unit not given; parental vector 400; conditions: tags: HA, NLS, p65
F2615 = F2615 (artificial (human zinc finger domains)); experiment: as above; conditions: tags: HA, NLS, p65
F2612 = F2612 (artificial (human zinc finger domains)); experiment: cell_activity; endogenous VEGF-A conc., unit inferred; parental vector 400; conditions: tags: HA, NLS, p65
F2633 = F2633 (artificial (human zinc finger domains)); experiment: cell_activity; endogenous VEGF-A conc., unit not given; parental vector 400; conditions: tags: HA, NLS, p65
F109-KRAB = F109-KRAB (artificial (human zinc finger domains)); experiment: cell_activity; luciferase reporter with native VEGF promoter -950 to +450, 293 cells, 30 ng plasmid; conditions: tags: HA, NLS
Method: (§1) Human embryonic kidney 293 cells were maintained in Dulbecco's modified Eagle medium (DMEM) supplemented with 100 units/ml penicillin, 100 μg/ml streptomycin, and 10% fetal bovine serum (FBS). For the luciferase assay, 10⁴ cells/well were pre-cultured in a 96-well plate. Using a LIPOFECTAMINE™ transfection kit (Life Technologies, Rockville, Md.), 293 cells were transfected with 25 ng of a reporter plasmid in which the native VEGF-A promoter was fused to the luciferase gene in pGL3-basic (Promega), and 25 ng of a plasmid encoding a zinc finger protein. After 48 h of incubation, luciferase activity was measured with a DUAL LUCIFERASE™ assay kit (Promega) using a TD-20/20 luminometer (Turner Designs Inc., Sunnyvale, Calif.).
(§2) 293 cells were transfected with luciferase reporter plasmid pGL3-VEGFprom containing native human VEGF promoter(−950 to +450 from the transcription initiation site) and 30 ng of pLFD-F121-KRAB or pLFD-F109-KRAB. Luciferase activity was measured as described. Fold repression values were calculated by normalizing the firefly luciferase activity against the renilla luciferase activity and the result was compared with that of the control wherein 293 cells were transfected with the control vector pLFD and the reporter plasmid.

F2644 = F2644 (artificial (human zinc finger domains)); experiment: cell_activity; endogenous VEGF-A conc., unit not given; parental vector 400; conditions: tags: HA, NLS, p65
F475 = F475 (artificial (human zinc finger domains)); experiment: as above
F2679 = F2679 (artificial (human zinc finger domains)); experiment: cell_activity; endogenous VEGF-A conc., unit inferred; parental vector 400; conditions: tags: HA, NLS, p65
F2610 = F2610 (artificial (human zinc finger domains)); experiment: cell_activity; endogenous VEGF-A conc., unit not given; parental vector 400; conditions: tags: HA, NLS, p65
F121 = F121 (artificial (human zinc finger domains)); experiment: cell_activity; endogenous VEGF-A conc., unit inferred; parental vector 400
F121-KRAB = F121-KRAB (artificial (human zinc finger domains)); experiment: cell_activity; luciferase reporter with native VEGF promoter -950 to +450, 293 cells, 30 ng plasmid; conditions: tags: HA, NLS
Method: as §1, §2

F480 = F480 (artificial (human zinc finger domains)); experiment: cell_activity; endogenous VEGF-A conc., unit not given; parental vector 400
F2604 = F2604 (artificial (human zinc finger domains)); experiment: as above; conditions: tags: HA, NLS, p65
F2650 = F2650 (artificial (human zinc finger domains)); experiment: as above; conditions: tags: HA, NLS, p65
F2605 = F2605 (artificial (human zinc finger domains)); experiment: as above; conditions: tags: HA, NLS, p65
Chain of F2605 (artificial (human zinc finger domains)) (chain, as listed by the source): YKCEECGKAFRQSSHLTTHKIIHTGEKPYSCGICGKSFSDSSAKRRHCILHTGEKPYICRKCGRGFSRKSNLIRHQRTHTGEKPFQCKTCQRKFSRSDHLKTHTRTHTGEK

Chain of F475 (artificial (human zinc finger domains)) (chain, as listed by the source): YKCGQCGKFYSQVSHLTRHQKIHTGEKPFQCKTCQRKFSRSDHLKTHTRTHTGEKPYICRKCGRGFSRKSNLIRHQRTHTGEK
Chain of F2612 (artificial (human zinc finger domains)) (chain, as listed by the source): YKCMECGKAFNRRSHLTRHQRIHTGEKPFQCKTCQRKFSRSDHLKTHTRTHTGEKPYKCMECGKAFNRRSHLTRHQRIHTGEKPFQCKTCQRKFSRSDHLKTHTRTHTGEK
Chain of F2644 (artificial (human zinc finger domains)) (chain, as listed by the source): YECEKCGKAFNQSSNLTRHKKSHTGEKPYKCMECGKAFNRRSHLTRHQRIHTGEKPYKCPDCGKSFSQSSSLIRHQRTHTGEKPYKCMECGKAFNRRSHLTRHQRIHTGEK
Chain of F2634 (artificial (human zinc finger domains)) (chain, as listed by the source): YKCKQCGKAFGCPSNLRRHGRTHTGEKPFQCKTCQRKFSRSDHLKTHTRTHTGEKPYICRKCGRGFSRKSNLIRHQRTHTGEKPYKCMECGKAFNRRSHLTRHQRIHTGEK
Chain of F2679 (artificial (human zinc finger domains)) (chain, as listed by the source): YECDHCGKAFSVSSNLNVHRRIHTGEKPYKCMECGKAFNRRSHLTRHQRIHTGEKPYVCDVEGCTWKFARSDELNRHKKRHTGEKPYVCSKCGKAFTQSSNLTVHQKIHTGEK
Chain of F2646 (artificial (human zinc finger domains)) (chain, as listed by the source): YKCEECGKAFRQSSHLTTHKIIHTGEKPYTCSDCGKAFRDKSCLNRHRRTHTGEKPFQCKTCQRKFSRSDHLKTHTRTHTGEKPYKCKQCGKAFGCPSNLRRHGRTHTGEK
Chain of F121 (artificial (human zinc finger domains)) (chain, as listed by the source): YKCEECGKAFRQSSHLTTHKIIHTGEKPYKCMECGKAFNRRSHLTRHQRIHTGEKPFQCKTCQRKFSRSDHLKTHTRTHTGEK
Chain of F2607 (artificial (human zinc finger domains)) (chain, as listed by the source): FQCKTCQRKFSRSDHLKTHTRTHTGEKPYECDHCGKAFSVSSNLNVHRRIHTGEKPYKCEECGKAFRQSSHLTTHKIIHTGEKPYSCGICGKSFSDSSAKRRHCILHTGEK
Chain of F2610 (artificial (human zinc finger domains)) (chain, as listed by the source): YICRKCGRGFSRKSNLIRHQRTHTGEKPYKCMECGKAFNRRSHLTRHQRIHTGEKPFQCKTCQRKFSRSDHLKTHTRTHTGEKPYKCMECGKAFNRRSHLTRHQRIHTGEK
Chain of F2638 (artificial (human zinc finger domains)) (chain, as listed by the source): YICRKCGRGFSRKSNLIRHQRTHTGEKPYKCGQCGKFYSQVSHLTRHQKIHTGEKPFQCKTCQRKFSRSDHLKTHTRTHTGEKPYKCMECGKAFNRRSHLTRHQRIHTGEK
Chain of F2633 (artificial (human zinc finger domains)) (chain, as listed by the source): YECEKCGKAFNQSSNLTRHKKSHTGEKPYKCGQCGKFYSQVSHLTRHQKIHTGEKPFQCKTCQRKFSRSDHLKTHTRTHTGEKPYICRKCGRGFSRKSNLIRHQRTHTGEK
Chain of F109-KRAB (artificial (human zinc finger domains)) (chain, as listed by the source): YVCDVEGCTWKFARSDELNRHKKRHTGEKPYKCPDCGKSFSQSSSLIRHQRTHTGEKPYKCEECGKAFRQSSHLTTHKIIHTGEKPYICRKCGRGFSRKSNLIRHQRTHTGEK
Chain of F2650 (artificial (human zinc finger domains)) (chain, as listed by the source): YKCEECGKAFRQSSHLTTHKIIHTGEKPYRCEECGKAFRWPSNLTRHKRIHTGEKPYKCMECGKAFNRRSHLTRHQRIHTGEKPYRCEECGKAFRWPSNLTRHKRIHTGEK
Chain of F2615 (artificial (human zinc finger domains)) (chain, as listed by the source): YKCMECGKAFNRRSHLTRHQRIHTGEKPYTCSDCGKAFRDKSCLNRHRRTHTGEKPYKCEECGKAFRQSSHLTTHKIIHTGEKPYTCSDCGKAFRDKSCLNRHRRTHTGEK
Chain of F480 (artificial (human zinc finger domains)) (chain, as listed by the source): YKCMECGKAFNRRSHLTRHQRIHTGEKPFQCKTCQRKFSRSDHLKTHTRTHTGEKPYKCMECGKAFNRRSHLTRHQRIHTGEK
Chain of F2604 (artificial (human zinc finger domains)) (chain, as listed by the source): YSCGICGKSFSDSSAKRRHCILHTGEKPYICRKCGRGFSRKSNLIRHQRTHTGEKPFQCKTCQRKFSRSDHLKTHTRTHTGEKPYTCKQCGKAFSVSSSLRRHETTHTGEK

B1: VEGF-A -395R (dsDNA)
DNA 1: GGGGAGAGGGAC
DNA 2: GTCCCTCTCCCC
Binder B1 has an activity (F2634) of 2100.

B2: VEGF-A -391R (12 bp) (dsDNA)
DNA 1: GGGTGGGGAGAG
DNA 2: CTCTCCCCACCC
Work on B2 yielded an activity (F2638) of 1900.

B3: VEGF-A -671 (dsDNA)
DNA 1: GTCAGAAATAGG
DNA 2: CCTATTTCTGAC
Binder B3 has an activity (F2607) of 1600 pg/mL.

B4: VEGF-A -314R (dsDNA)
DNA 1: GACAGGGCCTGA
DNA 2: TCAGGCCCTGTC
In the case of B4, the activity (F2646) is reported as 3400.

B5: VEGF-A -606 (dsDNA)
DNA 1: GCCAGAGCCGGG
DNA 2: CCCGGCTCTGGC
For B5, the activity (F2615) was 2700.

B6: VEGF-A -630R (dsDNA)
DNA 1: AGGGGGTGGGGG
DNA 2: CCCCCACCCCCT
Binder B6 has an activity (F2612) of 2000 pg/mL.

B7: VEGF-A -455 (12 bp) (dsDNA)
DNA 1: GAGCGGGGAGAA
DNA 2: TTCTCCCCGCTC
B7 showed an activity (F2633) of 4500.

B8: VEGF-A -536 (dsDNA)
DNA 1: GAGCGAGCAGCG
DNA 2: CGCTGCTCGCTC
B8 was tested, and the activity (F109-KRAB) was 6.1 fold repression.

B9: VEGF-A -358R (dsDNA)
DNA 1: GGGGCAGGGGAA
DNA 2: TTCCCCTGCCCC
In the case of B9, the activity (F2644) is reported as 4200.

B10: VEGF-A -455 (9 bp) (dsDNA)
DNA 1: GAGCGGGGA
DNA 2: TCCCCGCTC
With B10 the activity (F475) was 4150.

B11: VEGF-A +244R (dsDNA)
DNA 1: CAAGTGGGGAAT
DNA 2: ATTCCCCACTTG
In the case of B11, the activity (F2679) is reported as 1500 pg/mL.

B12: VEGF-A -633R (12 bp) (dsDNA)
DNA 1: GGGTGGGGGGAG
DNA 2: CTCCCCCCACCC
With B12 the activity (F2610) was 2300.

B13: VEGF-A +434 (dsDNA)
DNA 1: TGGGGGTGA
DNA 2: TCACCCCCA
In the case of B13, the activity (F121) is reported as 1300 pg/mL and the activity (F121-KRAB) is reported as 8.7 fold repression.

B14: VEGF-A -633R (9 bp) (dsDNA)
DNA 1: GGGTGGGGG
DNA 2: CCCCCACCC
In the case of B14, the activity (F480) is reported as 3100.

B15: VEGF-A -680 (dsDNA)
DNA 1: GTTTGGGAGGTC
DNA 2: GACCTCCCAAAC
With B15 the activity (F2604) was 1000.

B16: VEGF-A -206 (dsDNA)
DNA 1: GGTGGGGGTCGA
DNA 2: TCGACCCCCACC
With B16 the activity (F2650) was 4400.

B17: VEGF-A -677 (dsDNA)
DNA 1: TGGGAGGTCAGA
DNA 2: TCTGACCTCCCA
Work on B17 yielded an activity (F2605) of 3700.
